Holding throughout (assay): SEC
(In general: In gel filtration, larger molecules generally elute earlier.)

The target in test [1] is T1, bacteriophage P22 coat protein (bacteriophage P22, UniProt P26747 1-430).
For test [2], the target named is T1, bacteriophage P22 coat protein. This is another data set of the same source.
Test [3] shares this target. This is another data set of the same source.

Where two headings read alike, the source gives them in different places.

T1 sequence (P26747 whole entry): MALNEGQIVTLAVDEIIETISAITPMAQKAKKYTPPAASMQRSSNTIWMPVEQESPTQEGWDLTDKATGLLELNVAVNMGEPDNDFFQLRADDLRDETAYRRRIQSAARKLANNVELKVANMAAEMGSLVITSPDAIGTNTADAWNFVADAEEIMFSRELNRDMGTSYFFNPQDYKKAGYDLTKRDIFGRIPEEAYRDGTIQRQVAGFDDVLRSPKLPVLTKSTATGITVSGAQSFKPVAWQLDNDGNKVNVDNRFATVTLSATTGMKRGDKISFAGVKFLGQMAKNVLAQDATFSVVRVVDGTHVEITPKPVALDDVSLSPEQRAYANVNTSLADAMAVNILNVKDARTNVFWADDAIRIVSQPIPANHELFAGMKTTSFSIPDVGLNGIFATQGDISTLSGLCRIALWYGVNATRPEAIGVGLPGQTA

B1: bacteriophage P22 scaffolding protein (natural protein, UniProt P26748 1-303, looked up)
chain: MEPTTEIQATEDLTLSGDHAAASADSLVVDNANDNAGQEEGFEIVLKDDETAPKQDPAKNAEFARRRIERKRQRELEQQMEAVKRGELPESLRVNPDLPPQPDINAYLSEEGLAKYDYDNSRALAAFNAANTEWLMKAQDARSNAVAEQGRKTQEFTQQSAQYVEAARKHYDAAEKLNIPDYQEKEDAFMQLVPPAVGADIMRLFPEKSAALMYHLGANPEKARQLLAMDGQSALIELTRLSERLTLKPRGKQISSAPPADQPITGDVSAANKDAIRKQMDAAASKGDVETYRKLKAKLKGIR
Take B1: in test [1], the “midpoint of the binding fit (K's, input S/C ratio)” value was 0.88 input S/C molar ratio and the “stoichiometry N” value was 294 ± 33 scaffolding proteins per PC. In test [2], the “1/KS (dissociation constant of scaffolding protein for PC), Snum 300” value was determined as 0.77 ± 0.7 µM; the “1/KS (dissociation constant of scaffolding protein for PC), Snum 360” value turned out to be 1.29 ± 0.95 µM; the “1/KS (dissociation constant of scaffolding protein for PC), Snum 420” value stood at 1.88 ± 1.25 µM. In test [3], the “stoichiometry N” value was ~360 scaffolding protein sites per PC.

(Values after article PMC3351694 (Virology, 2012).)
